# Reference: patent US20080219999A1
# Biological target: Rhinovirus serotype HRV-39 (human rhinovirus 39)
# Test: cell-based or functional assay
Substance,"IC50, cytopathic effect (CPE) assay on HeLa S3 cells","fold lower IC50 than soluble ICAM-1, CPE assay on HeLa S3 cells"
"IC1-5D/IgA (ICAM/IgA fusion, gift of Dr. Tim Springer; Martin, et al., 1993) (from UniProt P05362 28-480; P01876 103-353) (Fc fusion)",0.12 mg/L,11.3 fold
soluble human ICAM-1 (from UniProt P05362 28-480),1.35 mg/L,
